Experimental data as given in PMC8115485 (Nature Communications, 2021).
Each block holds one molecule with its values, some of them ahead of it.

Assays:
[1] = target: T1, HisH (Thermotoga maritima, UniProt Q9X0C8, C84S); test: NMR titration in the presence of ProFAR; format: binding; parameters: HisFH-hC84S complex; with HisF
T1 sequence (Q9X0C8 1-201 C84S): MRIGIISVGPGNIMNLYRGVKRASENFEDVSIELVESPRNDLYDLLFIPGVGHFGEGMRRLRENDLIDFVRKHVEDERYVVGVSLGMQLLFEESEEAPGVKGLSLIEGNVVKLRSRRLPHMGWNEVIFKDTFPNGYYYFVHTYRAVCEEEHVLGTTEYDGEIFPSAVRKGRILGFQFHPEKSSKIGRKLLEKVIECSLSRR
T1 sequence (Q9X0C6 1-253 partner): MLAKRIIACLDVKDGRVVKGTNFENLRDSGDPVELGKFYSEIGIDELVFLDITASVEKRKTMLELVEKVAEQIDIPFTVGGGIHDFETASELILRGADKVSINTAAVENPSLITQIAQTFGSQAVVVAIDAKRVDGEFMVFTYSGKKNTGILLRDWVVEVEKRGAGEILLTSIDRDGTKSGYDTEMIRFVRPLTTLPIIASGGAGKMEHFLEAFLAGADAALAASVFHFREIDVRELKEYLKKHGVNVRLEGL

[2] = target: T2, HisH (Thermotoga maritima, UniProt Q9X0C8); test: NMR titration (methyl TROSY); format: binding; parameters: WT HisFH complex; with HisF
T2 sequence (Q9X0C8 1-201): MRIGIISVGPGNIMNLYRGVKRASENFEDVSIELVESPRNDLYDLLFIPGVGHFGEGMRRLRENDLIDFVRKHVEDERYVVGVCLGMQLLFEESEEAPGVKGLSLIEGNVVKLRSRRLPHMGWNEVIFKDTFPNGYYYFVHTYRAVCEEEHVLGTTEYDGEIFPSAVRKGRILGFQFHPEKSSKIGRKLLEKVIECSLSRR
T2 sequence (Q9X0C6 1-253 partner): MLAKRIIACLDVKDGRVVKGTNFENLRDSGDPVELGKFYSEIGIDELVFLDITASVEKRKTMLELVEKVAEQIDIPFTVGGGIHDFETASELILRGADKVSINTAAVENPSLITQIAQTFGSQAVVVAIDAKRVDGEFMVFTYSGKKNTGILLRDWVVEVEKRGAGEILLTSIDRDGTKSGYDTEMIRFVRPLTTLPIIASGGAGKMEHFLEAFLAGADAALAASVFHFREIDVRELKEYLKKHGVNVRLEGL

[3] = target: T1, HisH; test: biochemical
[4] = target: T3, HisH (Thermotoga maritima, UniProt Q9X0C8, C84A); test: X-ray crystal structure at […] Å; format: binding
T3 construct: HisFH-hC84A complex; with HisF
T3 sequence (Q9X0C8 1-201 C84A): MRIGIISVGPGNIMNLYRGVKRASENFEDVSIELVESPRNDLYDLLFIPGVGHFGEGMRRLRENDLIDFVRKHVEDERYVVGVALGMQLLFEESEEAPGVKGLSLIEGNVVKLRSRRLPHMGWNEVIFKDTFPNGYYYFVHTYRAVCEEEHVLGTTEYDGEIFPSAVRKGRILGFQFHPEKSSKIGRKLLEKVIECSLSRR
T3 sequence (Q9X0C6 1-253 partner): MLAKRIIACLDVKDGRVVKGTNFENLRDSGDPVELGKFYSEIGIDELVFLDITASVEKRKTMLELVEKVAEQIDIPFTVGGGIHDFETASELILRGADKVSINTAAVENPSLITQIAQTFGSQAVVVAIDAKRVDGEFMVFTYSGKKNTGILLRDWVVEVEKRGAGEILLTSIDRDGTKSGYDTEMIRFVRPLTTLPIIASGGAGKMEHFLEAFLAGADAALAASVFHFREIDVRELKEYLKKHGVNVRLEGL

[5] = target: T4, HisF (Thermotoga maritima, UniProt Q9X0C6); test: X-ray crystal structure at […] Å; NMR titration; glutaminase activation; format: binding
T4 construct: HisF-wt without tag, in the HisFH-hC84A complex; with HisH (hC84A)
T4 sequence (Q9X0C6 1-253): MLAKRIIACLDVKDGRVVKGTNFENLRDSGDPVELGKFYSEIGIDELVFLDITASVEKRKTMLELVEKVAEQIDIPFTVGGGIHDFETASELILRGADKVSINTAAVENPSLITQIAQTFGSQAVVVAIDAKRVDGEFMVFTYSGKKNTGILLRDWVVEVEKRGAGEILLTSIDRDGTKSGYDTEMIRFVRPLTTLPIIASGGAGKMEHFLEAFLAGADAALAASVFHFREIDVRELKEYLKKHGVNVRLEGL
T4 sequence (Q9X0C8 1-201 C84A partner): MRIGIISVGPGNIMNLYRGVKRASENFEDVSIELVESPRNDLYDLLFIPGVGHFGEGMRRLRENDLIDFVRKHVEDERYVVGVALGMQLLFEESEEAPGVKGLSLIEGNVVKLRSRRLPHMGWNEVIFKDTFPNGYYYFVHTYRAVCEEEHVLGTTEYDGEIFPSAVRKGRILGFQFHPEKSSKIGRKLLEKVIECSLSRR

[6] = target: T5, HisF, cyclase subunit of imidazole glycerol phosphate synthase from Thermotoga maritima, wild type, without … (Thermotoga maritima, UniProt Q9X0C6 1-253); test: crystal structure; HisFH-hC84A complex at 30 mg/ml in 10 mM Tris-HCl pH 8.0, 100 mM NaCl; hanging drop, 18 °C, 10 mM L-glutamine, 10 mM ProFAR added by soaking; 2.06 Å; three HisFH complexes in the asymmetric unit; conditions: both partners purified
T5 construct: HisF of Thermotoga maritima, Uniprot ID Q9X0C6; Crystallised as the HisFH-hC84A complex; also called HisF-wt; source: E. coli, expressed separately; cell lysate combined with that of HisH before the NiNTA column, complex purified (NiNTA, SEC)
T5 sequence: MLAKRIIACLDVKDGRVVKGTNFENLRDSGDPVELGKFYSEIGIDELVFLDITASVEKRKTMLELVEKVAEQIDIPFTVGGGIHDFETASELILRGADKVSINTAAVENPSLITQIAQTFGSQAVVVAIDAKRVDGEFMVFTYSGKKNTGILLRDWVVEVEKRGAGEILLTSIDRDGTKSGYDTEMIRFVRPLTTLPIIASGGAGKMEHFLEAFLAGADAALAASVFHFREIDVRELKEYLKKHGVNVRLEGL

[7] = target: T6, HisF from Thermotoga maritima, K19A mutant (Thermotoga maritima, UniProt Q9X0C6 1-253, fK19A); test: NMR spectra (TROSY, methyl-TROSY) of the complex reconstituted by SEC; HisF and HisH combined at a 1.3/1 ratio after TEV digestion, free HisF removed on Superdex 75 in NMR buffer (50 mM NaCl, 20 mM HEPES pH 7.3, 1 mM DTT); spectra at 30 °C, 50-150 µM protein; conditions: both partners purified
T6 construct: HisF of Thermotoga maritima, Uniprot ID Q9X0C6; also called fK19A; source: E. coli, purified
T6 sequence (looked up): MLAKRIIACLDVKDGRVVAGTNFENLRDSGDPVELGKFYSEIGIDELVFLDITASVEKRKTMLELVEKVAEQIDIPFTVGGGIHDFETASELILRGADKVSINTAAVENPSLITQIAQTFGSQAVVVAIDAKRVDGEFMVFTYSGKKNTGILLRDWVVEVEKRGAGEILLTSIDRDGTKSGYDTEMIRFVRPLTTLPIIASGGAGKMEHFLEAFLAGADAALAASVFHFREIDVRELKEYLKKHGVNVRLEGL

[8] = target: T7, HisF from Thermotoga maritima, F23A mutant (Thermotoga maritima, UniProt Q9X0C6 1-253, fF23A); test: as above; conditions: both partners purified
T7 construct: HisF of Thermotoga maritima, Uniprot ID Q9X0C6; also called fF23A; source: E. coli, purified
T7 sequence (looked up): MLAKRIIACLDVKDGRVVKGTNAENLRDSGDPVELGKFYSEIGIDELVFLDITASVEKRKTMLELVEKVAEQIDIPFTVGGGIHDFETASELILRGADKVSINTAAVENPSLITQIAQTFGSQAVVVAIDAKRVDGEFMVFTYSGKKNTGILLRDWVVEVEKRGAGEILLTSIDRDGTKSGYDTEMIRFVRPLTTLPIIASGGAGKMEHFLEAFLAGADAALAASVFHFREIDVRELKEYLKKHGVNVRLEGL

[9] = target: T8, HisF from Thermotoga maritima, D98E mutant (Thermotoga maritima, UniProt Q9X0C6 1-253, fD98E); test: as above; conditions: both partners purified
T8 construct: HisF of Thermotoga maritima, Uniprot ID Q9X0C6; also called fD98E; HisF-D98E; source: E. coli, purified
T8 sequence (looked up): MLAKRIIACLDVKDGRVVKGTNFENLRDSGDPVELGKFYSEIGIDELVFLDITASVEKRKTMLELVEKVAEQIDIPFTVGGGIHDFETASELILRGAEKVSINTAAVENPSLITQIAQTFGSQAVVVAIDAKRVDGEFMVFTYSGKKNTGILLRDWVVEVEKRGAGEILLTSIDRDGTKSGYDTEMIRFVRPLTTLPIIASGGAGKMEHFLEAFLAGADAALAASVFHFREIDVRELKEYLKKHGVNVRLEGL

[10] = target: T9, HisF, cyclase subunit of imidazole glycerol phosphate synthase from Thermotoga maritima, wild type (NMR … (Thermotoga maritima, UniProt Q9X0C6 1-253)); test: as above; conditions: both partners purified
T9 construct: HisF of Thermotoga maritima, Uniprot ID Q9X0C6; Deuterated and 15N labelled where HisF is observed; also called WT HisF; HisF-wt; source: E. coli BL21-CodonPlus (DE3)-RIL or BL21 Gold (DE3), purified (heat shock, NiNTA, TEV digestion, SEC); not shown: His-tag, N-terminal, cleaved
T9 sequence: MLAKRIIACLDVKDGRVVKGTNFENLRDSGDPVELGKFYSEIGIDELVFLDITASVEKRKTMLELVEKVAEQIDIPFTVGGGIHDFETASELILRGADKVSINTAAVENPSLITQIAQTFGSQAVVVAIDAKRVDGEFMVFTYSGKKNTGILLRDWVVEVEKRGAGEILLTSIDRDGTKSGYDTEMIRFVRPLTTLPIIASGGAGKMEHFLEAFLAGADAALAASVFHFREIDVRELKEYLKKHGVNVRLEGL

[11] = target: T10, HisF from Thermotoga maritima, V48A mutant (Thermotoga maritima, UniProt Q9X0C6 1-253, fV48A); test: as above; conditions: both partners purified
T10 construct: HisF of Thermotoga maritima, Uniprot ID Q9X0C6; also called fV48A; source: E. coli, purified
T10 sequence (looked up): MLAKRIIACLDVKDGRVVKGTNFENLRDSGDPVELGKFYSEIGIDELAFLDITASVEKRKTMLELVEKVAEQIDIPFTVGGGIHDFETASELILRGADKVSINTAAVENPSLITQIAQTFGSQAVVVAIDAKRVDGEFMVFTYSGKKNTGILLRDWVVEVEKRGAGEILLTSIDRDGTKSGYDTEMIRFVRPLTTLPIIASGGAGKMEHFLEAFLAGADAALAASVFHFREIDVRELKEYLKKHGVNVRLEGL

Molecule: NC(=O)NC[C@H](N)C(=O)O [Albizziin]
NMR titration in the presence of ProFAR [1]: for the HisFH–hC84S mutant the active conformation is clearly visible

Molecule: NC(=O)CC[C@H](N)C(=O)O [Gln]
Kd [2]: 1.3 ± 0.1 mM
Kd [3]: 1.7 ± 0.1 mM
X-ray crystal structure at 2.06 Å [4]: The asymmetric unit contains three HisFH complexes

Molecule: NC(=O)c1ncn([C@@H]2O[C@H](COP(=O)(O)O)[C@@H](O)[C@H]2O)c1N=CN[C@@H]1O[C@H](COP(=O)(O)O)[C@@H](O)[C@H]1O [ProFAR]
X-ray crystal structure at 2.06 Å; NMR titration; glutaminase activation [5]: the HisF active site shows unambiguous electron density for a ProFAR molecule

binding result [6]: binds
B1: HisH, glutaminase subunit of imidazole glycerol phosphate synthase from Thermotoga maritima, C84A mutant (crystallisation construct) (enzyme)
chain: MRIGIISVGPGNIMNLYRGVKRASENFEDVSIELVESPRNDLYDLLFIPGVGHFGEGMRRLRENDLIDFVRKHVEDERYVVGVALGMQLLFEESEEAPGVKGLSLIEGNVVKLRSRRLPHMGWNEVIFKDTFPNGYYYFVHTYRAVCEEEHVLGTTEYDGEIFPSAVRKGRILGFQFHPEKSSKIGRKLLEKVIECSLSRR
notes: HisH of Thermotoga maritima, Uniprot ID Q9X0C8; also called hC84A; HisH-C84A; source: E. coli, expressed separately; cell lysate combined with that of HisF before the NiNTA column, complex purified (NiNTA, SEC)

binding result [7]: binds
binding result [8]: binds
binding result [9]: binds
binding result [10]: binds
binding result [11]: binds
B2: HisH, glutaminase subunit of imidazole glycerol phosphate synthase from Thermotoga maritima, C84S mutant (enzyme, UniProt Q9X0C8 1-201, looked up)
chain: MRIGIISVGPGNIMNLYRGVKRASENFEDVSIELVESPRNDLYDLLFIPGVGHFGEGMRRLRENDLIDFVRKHVEDERYVVGVSLGMQLLFEESEEAPGVKGLSLIEGNVVKLRSRRLPHMGWNEVIFKDTFPNGYYYFVHTYRAVCEEEHVLGTTEYDGEIFPSAVRKGRILGFQFHPEKSSKIGRKLLEKVIECSLSRR
notes: HisH of Thermotoga maritima, Uniprot ID Q9X0C8; Deuterated, ILMVA methyl labelled or histidine ring-13C2 labelled for NMR; also called hC84S; HisH-C84S; source: E. coli BL21-CodonPlus (DE3)-RIL, purified (heat shock, NiNTA, TEV digestion, SEC); not shown: His-tag, N-terminal, cleaved

binding result [10]: binds
B3: HisH from Thermotoga maritima, C84A mutant (NMR samples) (enzyme, UniProt Q9X0C8 1-201, looked up)
chain: MRIGIISVGPGNIMNLYRGVKRASENFEDVSIELVESPRNDLYDLLFIPGVGHFGEGMRRLRENDLIDFVRKHVEDERYVVGVALGMQLLFEESEEAPGVKGLSLIEGNVVKLRSRRLPHMGWNEVIFKDTFPNGYYYFVHTYRAVCEEEHVLGTTEYDGEIFPSAVRKGRILGFQFHPEKSSKIGRKLLEKVIECSLSRR
notes: HisH of Thermotoga maritima, Uniprot ID Q9X0C8; probably the same construct as m2, kept apart because the state of the tag is told only for the labelled proteins; also called hC84A; source: E. coli BL21-CodonPlus (DE3)-RIL, purified (heat shock, NiNTA, TEV digestion, SEC); not shown: His-tag, N-terminal, cleaved
